Source: paper PMC6504876, “TFIIE orchestrates the recruitment of the TFIIH kinase module at promoter before release during transcription” (Nature Communications, 2019)

B1: His-TFIIEβ/WT [not stated] / Flag-TFIIEα [not stated] (parent)
chain 1: MDPSLLRERELFKKRALSTPVVEKRSASSESSSSSSKKKKTKVEHGGSSGSKQNSDHSNGSFNLKALSGSSGYKFGVLAKIVNYMKTRHQRGDTHPLTLDEILDETQHLDIGLKQKQWLMTEALVNNPKIEVIDGKYAFKPKYNVRDKKALLRLLDQHDQRGLGGILLEDIEEALPNSQKAVKALGDQILFVNRPDKKKILFFNDKSCQFSVDEEFQKLWRSVTVDSMDEEKIEEYLKRQGISSMQESGPKKVAPIQRRKKPASQKKRRFKTHNEHLAGVLKDYSDITSSK
chain 2: MADPDVLTEVPAALKRLAKYVIRGFYGIEHALALDILIRNSCVKEEDMLELLKFDRKQLRSVLNNLKGDKFIKCRMRVETAADGKTTRHNYYFINYRTLVNVVKYKLDHMRRRIETDERDSTNRASFKCPVCSSTFTDLEANQLFDPMTGTFRCTFCHTEVEEDESAMPKKDARTLLARFNEQIEPIYALLRETEDVNLAYEILEPEPTEIPALKQSKDHAATTAGAASLAGGHHREAWATKGPSYEDLYTQNVVINMDDQEDLHRASLEGKSAKERPIWLRESTVQGAYGSEDMKEGGIDMDAFQEREEGHAGPDDNEEVMRALLIHEKKTSSAMAGSVGAAAPVTAANGSDSESETSESDDDSPPRPAAVAVHKREEDEEEDDEFEEVADDPIVMVAGRPFSYSEVSQRPELVAQMTPEEKEAYIAMGQRMFEDLFE

Variants of: B1
Experiment: co-immunoprecipitation (IP of IIEα), immunoblot quantified
Settings: with Flag-TFIIEα, n = 3, means ± s.d., read off a plot

| screen value (150 mM KCl) | screen value (500 mM KCl) | Variant |
| --- | --- | --- |
| 0.78 a.u. | 0.67 a.u. | chain 1 A150P |
| 0.85 a.u. | 0.45 a.u. | chain 1 D187Y |
